These results are taken from publication PMC12102759 (2025).

First the molecules themselves.
B1: RNF115 peptide 67-82 (E3 ubiquitin-protein ligase RNF115), 16-mer library wild type / MDM2 SWIB (MDM2 SWIB/MDM2 domain, residues 17-125) (parent complex)
chain 1: TTTHFAELWGHLDHTM
chain 2: SQIPASEQETLVRPKPLLLKLLKSVGAQKDTYTMKEVLFYLGQYIMTKRLYDEKQQHIVYCSNDLLGDLFGVPSFSVKEHRKIYTMIYRNLVVVNQQESSDSGTSVSEN

This assay covers variants of B1. Briefly: proteomic peptide phage display deep mutational scan (ProP-PD DMS): M13 P8 16-mer library selected against immobilised GST-tagged bait for four days (rounds), NGS of the eluted pools per day and pseudo-replica; bait immobilised on MaxiSorp plates (10 µg), library pre-cleared on GST, 2 h binding at 4 °C, five washes; one round per day, days 1-4; value from days 2 and 3.
Take chain 1 H4P: the screen value is 0.000821 average fractional NGS count over selection days 2 and 3 (reads of this peptide / all reads for the bait, averaged over ….

Consider chain 1 H4L, for which the screen value was 0.000482 average fractional NGS count over selection days 2 and 3 (reads of this peptide / all reads for the bait, averaged over ….

Turning to chain 1 H4M, the screen value was 0.000847 average fractional NGS count over selection days 2 and 3 (reads of this peptide / all reads for the bait, averaged over ….

On to chain 1 H4Y, for which the screen value was 0.000766 average fractional NGS count over selection days 2 and 3 (reads of this peptide / all reads for the bait, averaged over ….

As to chain 1 H4N, the screen value was 0.000308 average fractional NGS count over selection days 2 and 3 (reads of this peptide / all reads for the bait, averaged over ….

As for chain 1 H4E, the screen value is 0.000591 average fractional NGS count over selection days 2 and 3 (reads of this peptide / all reads for the bait, averaged over ….

In the case of chain 1 H4Q, the screen value is 0.00071 average fractional NGS count over selection days 2 and 3 (reads of this peptide / all reads for the bait, averaged over ….

Consider chain 1 H4V, for which the screen value was 0.000238 average fractional NGS count over selection days 2 and 3 (reads of this peptide / all reads for the bait, averaged over ….

As for chain 1 H4T, the screen value was 0.002 average fractional NGS count over selection days 2 and 3 (reads of this peptide / all reads for the bait, averaged over ….

With chain 1 H4K, the screen value was 0.000298 average fractional NGS count over selection days 2 and 3 (reads of this peptide / all reads for the bait, averaged over ….

Consider chain 1 H4S, for which the screen value is 0.0034 average fractional NGS count over selection days 2 and 3 (reads of this peptide / all reads for the bait, averaged over ….

On to chain 1 E7I, for which the screen value is 0.000492 average fractional NGS count over selection days 2 and 3 (reads of this peptide / all reads for the bait, averaged over ….

Take chain 1 H11F: the screen value was 0.00626 average fractional NGS count over selection days 2 and 3 (reads of this peptide / all reads for the bait, averaged over ….

For chain 1 H11Q, the screen value is 0.00312 average fractional NGS count over selection days 2 and 3 (reads of this peptide / all reads for the bait, averaged over ….

As to chain 1 H11A, the screen value is 0.0021 average fractional NGS count over selection days 2 and 3 (reads of this peptide / all reads for the bait, averaged over ….

Turning to chain 1 H11Y, the screen value was 0.00946 average fractional NGS count over selection days 2 and 3 (reads of this peptide / all reads for the bait, averaged over ….

Consider chain 1 H11E, for which the screen value is 0.000714 average fractional NGS count over selection days 2 and 3 (reads of this peptide / all reads for the bait, averaged over ….

On to chain 1 H11W, for which the screen value is 0.00259 average fractional NGS count over selection days 2 and 3 (reads of this peptide / all reads for the bait, averaged over ….

Consider chain 1 H11L, for which the screen value was 0.00334 average fractional NGS count over selection days 2 and 3 (reads of this peptide / all reads for the bait, averaged over ….

For the variant chain 1 H11I, the screen value is 0.000552 average fractional NGS count over selection days 2 and 3 (reads of this peptide / all reads for the bait, averaged over ….

For chain 1 H11R, the screen value was 0.000902 average fractional NGS count over selection days 2 and 3 (reads of this peptide / all reads for the bait, averaged over ….

Take chain 1 M16Q: the screen value was 0.000223 average fractional NGS count over selection days 2 and 3 (reads of this peptide / all reads for the bait, averaged over ….

Consider chain 1 M16F, for which the screen value is 0.000243 average fractional NGS count over selection days 2 and 3 (reads of this peptide / all reads for the bait, averaged over ….

Turning to chain 1 M16Y, the screen value was 0.000534 average fractional NGS count over selection days 2 and 3 (reads of this peptide / all reads for the bait, averaged over ….

For the variant chain 1 M16L, the screen value was 0.0016 average fractional NGS count over selection days 2 and 3 (reads of this peptide / all reads for the bait, averaged over ….

Regarding chain 1 M16I, the screen value was 0.000492 average fractional NGS count over selection days 2 and 3 (reads of this peptide / all reads for the bait, averaged over ….

For chain 1 M16V, the screen value is 0.00172 average fractional NGS count over selection days 2 and 3 (reads of this peptide / all reads for the bait, averaged over ….

Consider chain 1 M16P, for which the screen value is 0.000227 average fractional NGS count over selection days 2 and 3 (reads of this peptide / all reads for the bait, averaged over ….

For the variant chain 1 M16E, the screen value was 0.000437 average fractional NGS count over selection days 2 and 3 (reads of this peptide / all reads for the bait, averaged over ….

chain 1 M16A: the screen value is 9.05e-05 average fractional NGS count over selection days 2 and 3 (reads of this peptide / all reads for the bait, averaged over ….

Consider chain 1 A6M, for which the screen value is 0.00215 average fractional NGS count over selection days 2 and 3 (reads of this peptide / all reads for the bait, averaged over ….

In the case of chain 1 A6L, the screen value is 0.00496 average fractional NGS count over selection days 2 and 3 (reads of this peptide / all reads for the bait, averaged over ….

As for chain 1 A6E, the screen value was 0.000746 average fractional NGS count over selection days 2 and 3 (reads of this peptide / all reads for the bait, averaged over ….

On to chain 1 A6I, for which the screen value is 0.000155 average fractional NGS count over selection days 2 and 3 (reads of this peptide / all reads for the bait, averaged over ….

Take chain 1 T3G: the screen value was 0.000204 average fractional NGS count over selection days 2 and 3 (reads of this peptide / all reads for the bait, averaged over ….

As for chain 1 T3E, the screen value is 0.00168 average fractional NGS count over selection days 2 and 3 (reads of this peptide / all reads for the bait, averaged over ….

With chain 1 T3S, the screen value was 0.000431 average fractional NGS count over selection days 2 and 3 (reads of this peptide / all reads for the bait, averaged over ….

Regarding chain 1 T3F, the screen value is 0.000452 average fractional NGS count over selection days 2 and 3 (reads of this peptide / all reads for the bait, averaged over ….

Regarding chain 1 T3P, the screen value was 0.000694 average fractional NGS count over selection days 2 and 3 (reads of this peptide / all reads for the bait, averaged over ….

As to chain 1 T3V, the screen value is 0.000622 average fractional NGS count over selection days 2 and 3 (reads of this peptide / all reads for the bait, averaged over ….

In the case of chain 1 T3H, the screen value was 0.000104 average fractional NGS count over selection days 2 and 3 (reads of this peptide / all reads for the bait, averaged over ….

Consider chain 1 T3M, for which the screen value was 0.000962 average fractional NGS count over selection days 2 and 3 (reads of this peptide / all reads for the bait, averaged over ….

As to chain 1 T3Y, the screen value is 0.000753 average fractional NGS count over selection days 2 and 3 (reads of this peptide / all reads for the bait, averaged over ….

chain 1 T3W: the screen value is 0.00105 average fractional NGS count over selection days 2 and 3 (reads of this peptide / all reads for the bait, averaged over ….

Take chain 1 D13E: the screen value is 0.000754 average fractional NGS count over selection days 2 and 3 (reads of this peptide / all reads for the bait, averaged over ….

Regarding chain 1 D13H, the screen value is 0.000247 average fractional NGS count over selection days 2 and 3 (reads of this peptide / all reads for the bait, averaged over ….

Turning to chain 1 D13I, the screen value is 0.00102 average fractional NGS count over selection days 2 and 3 (reads of this peptide / all reads for the bait, averaged over ….

As to chain 1 D13Y, the screen value is 0.00726 average fractional NGS count over selection days 2 and 3 (reads of this peptide / all reads for the bait, averaged over ….

With chain 1 D13A, the screen value was 0.00127 average fractional NGS count over selection days 2 and 3 (reads of this peptide / all reads for the bait, averaged over ….

For the variant chain 1 D13L, the screen value was 0.00105 average fractional NGS count over selection days 2 and 3 (reads of this peptide / all reads for the bait, averaged over ….

Consider chain 1 D13N, for which the screen value is 0.000525 average fractional NGS count over selection days 2 and 3 (reads of this peptide / all reads for the bait, averaged over ….

On to chain 1 D13S, for which the screen value was 0.00426 average fractional NGS count over selection days 2 and 3 (reads of this peptide / all reads for the bait, averaged over ….

chain 1 D13F: the screen value is 0.00274 average fractional NGS count over selection days 2 and 3 (reads of this peptide / all reads for the bait, averaged over ….

Regarding chain 1 T15D, the screen value was 0.000245 average fractional NGS count over selection days 2 and 3 (reads of this peptide / all reads for the bait, averaged over ….

chain 1 T15A: the screen value was 0.000886 average fractional NGS count over selection days 2 and 3 (reads of this peptide / all reads for the bait, averaged over ….

As to chain 1 T15S, the screen value was 0.000189 average fractional NGS count over selection days 2 and 3 (reads of this peptide / all reads for the bait, averaged over ….

With chain 1 T15Q, the screen value was 0.000103 average fractional NGS count over selection days 2 and 3 (reads of this peptide / all reads for the bait, averaged over ….

For chain 1 T15F, the screen value is 0.00191 average fractional NGS count over selection days 2 and 3 (reads of this peptide / all reads for the bait, averaged over ….

Take chain 1 T15V: the screen value is 0.00407 average fractional NGS count over selection days 2 and 3 (reads of this peptide / all reads for the bait, averaged over ….

As to chain 1 G10Q, the screen value is 0.000894 average fractional NGS count over selection days 2 and 3 (reads of this peptide / all reads for the bait, averaged over ….

Regarding chain 1 G10T, the screen value was 0.000148 average fractional NGS count over selection days 2 and 3 (reads of this peptide / all reads for the bait, averaged over ….

For the variant chain 1 G10N, the screen value is 0.000457 average fractional NGS count over selection days 2 and 3 (reads of this peptide / all reads for the bait, averaged over ….

Regarding chain 1 G10M, the screen value is 0.00144 average fractional NGS count over selection days 2 and 3 (reads of this peptide / all reads for the bait, averaged over ….

On to chain 1 G10Y, for which the screen value was 0.000227 average fractional NGS count over selection days 2 and 3 (reads of this peptide / all reads for the bait, averaged over ….

Regarding chain 1 G10L, the screen value is 0.000164 average fractional NGS count over selection days 2 and 3 (reads of this peptide / all reads for the bait, averaged over ….

As to chain 1 G10I, the screen value was 7.33e-05 average fractional NGS count over selection days 2 and 3 (reads of this peptide / all reads for the bait, averaged over ….

As for chain 1 G10W, the screen value was 0.000571 average fractional NGS count over selection days 2 and 3 (reads of this peptide / all reads for the bait, averaged over ….

In the case of chain 1 G10S, the screen value is 0.00615 average fractional NGS count over selection days 2 and 3 (reads of this peptide / all reads for the bait, averaged over ….

Take chain 1 L8I: the screen value was 7.89e-05 average fractional NGS count over selection days 2 and 3 (reads of this peptide / all reads for the bait, averaged over ….

As to chain 1 L8M, the screen value was 0.000104 average fractional NGS count over selection days 2 and 3 (reads of this peptide / all reads for the bait, averaged over ….

As for chain 1 L8W, the screen value is 0.00339 average fractional NGS count over selection days 2 and 3 (reads of this peptide / all reads for the bait, averaged over ….

For the variant chain 1 L8Y, the screen value is 0.0291 average fractional NGS count over selection days 2 and 3 (reads of this peptide / all reads for the bait, averaged over ….

Take chain 1 H14F: the screen value is 0.00117 average fractional NGS count over selection days 2 and 3 (reads of this peptide / all reads for the bait, averaged over ….

In the case of chain 1 H14G, the screen value is 0.00396 average fractional NGS count over selection days 2 and 3 (reads of this peptide / all reads for the bait, averaged over ….

chain 1 H14M: the screen value was 0.00126 average fractional NGS count over selection days 2 and 3 (reads of this peptide / all reads for the bait, averaged over ….
